Reference: patent US20210332138A1 (published 2021)
Like-named read-outs stand apart in the source and are kept apart here.

How the values were obtained:
hPDL1-Fc fusion protein [1] = target: T1, hPDL1-Fc fusion protein (human, UniProt Q9NZQ7 19-238); test: RBA; PD1 coated
hPDL1-Fc fusion protein [2] = target: T1, hPDL1-Fc fusion protein; test: BIAcore
hPDL1-Fc fusion protein [3] = target: T1, hPDL1-Fc fusion protein; test: ELISA
hPDL1-Fc fusion protein [4] = target: T1, hPDL1-Fc fusion protein; test: ELISA; FIG. 11C
hPDL1-Fc fusion protein [5] = target: T1, hPDL1-Fc fusion protein; test: receptor blocking ELISA; hPD1-Fc coated
[6] = target: T2, hPDL1 expressed on 293T cells (human, UniProt Q9NZQ7 19-290); test: FACS
T2 sequence (Q9NZQ7 19-290): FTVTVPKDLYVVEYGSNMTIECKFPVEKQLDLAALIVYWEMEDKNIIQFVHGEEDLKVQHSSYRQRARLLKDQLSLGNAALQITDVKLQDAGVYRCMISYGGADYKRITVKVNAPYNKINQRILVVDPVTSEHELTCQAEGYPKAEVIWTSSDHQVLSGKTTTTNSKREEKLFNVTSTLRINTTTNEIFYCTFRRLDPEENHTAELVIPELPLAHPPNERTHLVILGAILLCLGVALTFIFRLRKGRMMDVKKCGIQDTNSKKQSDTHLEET

hPDL1-Fc fusion protein [7] = target: T1, hPDL1-Fc fusion protein; test: RBA; PDL1 coated
hPDL1-Fc fusion protein [8] = target: T1, hPDL1-Fc fusion protein; test: ELISA; FIG. 11B
hPDL1-Fc fusion protein [9] = target: T1, hPDL1-Fc fusion protein; test: receptor blocking ELISA; hPDL1-Fc coated
[10] = target: T2, hPDL1 expressed on 293T cells; test: FACS; remark: listed apart in the source

T1 sequence (Q9NZQ7 19-238): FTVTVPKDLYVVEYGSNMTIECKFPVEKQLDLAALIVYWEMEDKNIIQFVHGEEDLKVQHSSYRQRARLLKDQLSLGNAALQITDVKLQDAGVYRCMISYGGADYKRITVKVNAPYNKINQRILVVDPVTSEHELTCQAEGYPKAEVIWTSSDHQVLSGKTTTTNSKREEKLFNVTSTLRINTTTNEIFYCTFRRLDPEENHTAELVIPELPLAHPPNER

Binder	IC50 (hPDL1-Fc fusion protein [1]) [nM]	Kd (hPDL1-Fc fusion protein [2]) [nM]	EC50 (hPDL1-Fc fusion protein [3]) [nM]	EC50 (hPDL1-Fc fusion protein [4]) [nM]	IC50 (hPDL1-Fc fusion protein [5]) [nM]	EC50 [6] [nM]	IC50 (hPDL1-Fc fusion protein [7]) [nM]	EC50 (hPDL1-Fc fusion protein [8]) [nM]	IC50 (hPDL1-Fc fusion protein [9]) [nM]	EC50 [10] [nM]
full-length antibody 4-1E8 (antibody, V domains shown) VH: QIQLVQSGAEVKMPGASVTISCEASGYNFISYYIHWVRQAPGQGLEWMGFVVPSGGAAGYTQKFQGRLTVTRDTSTSTVYMDLNSLTSDDTAVYYCVREMSGGWFDFWGQGTLVTVSS VL: DIVMTQSPSSLSASVGDRVTITCRASQGIRNDLGWYQQKPGKAPKLLIYAASTLQSGVPSRFSGSGSGTDFTLTISSLQAEDVAVYYCQQYYSTPLTFGPGTKVDIK	1.26	4.46	0.0391	0.0247	1.53	0.356	1.53	0.0391	1.26	–
full-length antibody 3-1B11 (antibody, V domains shown) VH: EVQLVESGGGLVQPGGSLRLSCAASGFTFSDYDMIWVRQAPGKGLEWVAVISYDGSNKYYADSVKGRFTISRDNSKNTLYLQMNSLRAEDTAVYYCAKEFFGAFDIWGQGTMVTVSS VL: SSELTQDPAVSVALGQTVTITCQGDSLNYYYANWFQLKPGQAPVLVLFGKNNRPSGIPDRFSGSYSGSTASLTITGAQAEDDADYYCNSRDSGGNPWVFGGGTKLTVL	1.39	2.32	0.018	0.018	–	0.132	0.795	–	–	0.132
full-length antibody 3-1E4 (antibody, V domains shown) VH: QIQLVQSGAEVKKPGSSVKVSCKASGGTFSSYAISWVRQAPGQGLEWMGGIIPIFGTANYAQKFQGRVTITADKSTSTAYMELSSLRSEDTAVYYCAGGGAVADNSYWGQGTLVTVSS VL: DIRMTQSPSSLSASVGDRVTITCRASQGIRNDLGWYQQKPGKAPKLLIYAASSLQSGVPSRFSGSGSGTDFTLTISSLQPEDFATYYCLQDYNYPRTFGQGTKVEIK	92.7	–	0.9	–	16.6	3.15	16.6	0.9	92.7	–
